T1: human amylin receptor (human, UniProt P30988 25-474; O60896 24-148, limits assumed)
T1 construct: whole, on cells; Calcitonin receptor plus RAMP-3 gives the amylin 3(a) receptor; membranes of Amylin 3(a)/CRE-luc cells were used; also called hAmylin-R; hAmylinR
T1 sequence (looked up) 1: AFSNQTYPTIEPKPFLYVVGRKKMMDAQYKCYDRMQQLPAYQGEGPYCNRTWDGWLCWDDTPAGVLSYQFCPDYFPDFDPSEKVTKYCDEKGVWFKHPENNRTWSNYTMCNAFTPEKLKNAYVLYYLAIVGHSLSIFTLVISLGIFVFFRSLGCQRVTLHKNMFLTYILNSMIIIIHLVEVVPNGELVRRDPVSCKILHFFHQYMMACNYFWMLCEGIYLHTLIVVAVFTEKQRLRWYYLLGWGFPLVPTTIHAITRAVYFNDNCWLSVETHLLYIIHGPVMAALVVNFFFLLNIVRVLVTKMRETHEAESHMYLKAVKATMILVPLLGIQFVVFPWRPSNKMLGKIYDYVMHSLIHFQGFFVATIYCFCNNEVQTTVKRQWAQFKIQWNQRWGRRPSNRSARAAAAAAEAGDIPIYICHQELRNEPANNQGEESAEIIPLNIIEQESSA
T1 sequence (looked up) 2: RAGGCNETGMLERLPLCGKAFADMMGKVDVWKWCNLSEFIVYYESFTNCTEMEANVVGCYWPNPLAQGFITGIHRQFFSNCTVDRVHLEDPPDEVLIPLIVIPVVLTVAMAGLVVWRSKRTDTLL

B1: N^ε1-[2-[2-[2-[[(4S)-4-carboxy-4-(19-carboxynonadecanoylamino)butanoyl]amino]ethoxy]ethoxy]acetyl]-[Gly14,Arg17,Pro21,Pro27,Pro31]-h-amylin (peptide)
peptide: K([AEEA-γGlu-C20 diacid])CNTATCATQRLAGFLRHSSPNFGAIPSSTPVGSNTY-NH2
modifications: disulfide 2-7; N-terminus assumed
SMILES: CC[C@H](C)[C@H](NC(=O)[C@H](C)NC(=O)CNC(=O)[C@H](Cc1ccccc1)NC(=O)[C@H](CC(N)=O)NC(=O)[C@@H]1CCCN1C(=O)[C@H](CO)NC(=O)[C@H](CO)NC(=O)[C@H](Cc1c[nH]cn1)NC(=O)[C@H](CCCNC(=N)N)NC(=O)[C@H](CC(C)C)NC(=O)[C@H](Cc1ccccc1)NC(=O)CNC(=O)[C@H](C)NC(=O)[C@H](CC(C)C)NC(=O)[C@H](CCCNC(=N)N)NC(=O)[C@H](CCC(N)=O)NC(=O)[C@@H](NC(=O)[C@H](C)NC(=O)[C@@H]1CSSC[C@H](NC(=O)[C@@H](N)CCCCNC(=O)COCCOCCNC(=O)CC[C@H](NC(=O)CCCCCCCCCCCCCCCCCCC(=O)O)C(=O)O)C(=O)N[C@@H](CC(N)=O)C(=O)N[C@@H]([C@@H](C)O)C(=O)N[C@@H](C)C(=O)N[C@@H]([C@@H](C)O)C(=O)N1)[C@@H](C)O)C(=O)N1CCC[C@H]1C(=O)N[C@@H](CO)C(=O)N[C@@H](CO)C(=O)N[C@H](C(=O)N1CCC[C@H]1C(=O)N[C@H](C(=O)NCC(=O)N[C@@H](CO)C(=O)N[C@@H](CC(N)=O)C(=O)N[C@H](C(=O)N[C@@H](Cc1ccc(O)cc1)C(N)=O)[C@@H](C)O)C(C)C)[C@@H](C)O
notes: also called 14G, 17R, 21P, 27P, 31P
B2: N^ε1-[2-[2-[2-[[(4S)-4-carboxy-4-(19-carboxynonadecanoylamino)butanoyl]amino]ethoxy]ethoxy]acetyl]-[His14,Arg17,Pro21,Pro27,Pro34]-h-amylin (peptide)
peptide: K([AEEA-γGlu-C20 diacid])CNTATCATQRLAHFLRHSSPNFGAIPSSTNVGPNTY-NH2
modifications: disulfide 2-7; N-terminus assumed
SMILES: CC[C@H](C)[C@H](NC(=O)[C@H](C)NC(=O)CNC(=O)[C@H](Cc1ccccc1)NC(=O)[C@H](CC(N)=O)NC(=O)[C@@H]1CCCN1C(=O)[C@H](CO)NC(=O)[C@H](CO)NC(=O)[C@H](Cc1c[nH]cn1)NC(=O)[C@H](CCCNC(=N)N)NC(=O)[C@H](CC(C)C)NC(=O)[C@H](Cc1ccccc1)NC(=O)[C@H](Cc1c[nH]cn1)NC(=O)[C@H](C)NC(=O)[C@H](CC(C)C)NC(=O)[C@H](CCCNC(=N)N)NC(=O)[C@H](CCC(N)=O)NC(=O)[C@@H](NC(=O)[C@H](C)NC(=O)[C@@H]1CSSC[C@H](NC(=O)[C@@H](N)CCCCNC(=O)COCCOCCNC(=O)CC[C@H](NC(=O)CCCCCCCCCCCCCCCCCCC(=O)O)C(=O)O)C(=O)N[C@@H](CC(N)=O)C(=O)N[C@@H]([C@@H](C)O)C(=O)N[C@@H](C)C(=O)N[C@@H]([C@@H](C)O)C(=O)N1)[C@@H](C)O)C(=O)N1CCC[C@H]1C(=O)N[C@@H](CO)C(=O)N[C@@H](CO)C(=O)N[C@H](C(=O)N[C@@H](CC(N)=O)C(=O)N[C@H](C(=O)NCC(=O)N1CCC[C@H]1C(=O)N[C@@H](CC(N)=O)C(=O)N[C@H](C(=O)N[C@@H](Cc1ccc(O)cc1)C(N)=O)[C@@H](C)O)C(C)C)[C@@H](C)O
notes: also called 14H, 17R, 21P, 27P, 34P
B3: N^ε1-[2-[2-[2-[[(4S)-4-carboxy-4-(19-carboxynonadecanoylamino)butanoyl]amino]ethoxy]ethoxy]acetyl]-[His14,Arg17,Pro21,Pro27,Arg34]-h-amylin (peptide)
peptide: K([AEEA-γGlu-C20 diacid])CNTATCATQRLAHFLRHSSPNFGAIPSSTNVGRNTY-NH2
modifications: disulfide 2-7; N-terminus assumed
SMILES: CC[C@H](C)[C@H](NC(=O)[C@H](C)NC(=O)CNC(=O)[C@H](Cc1ccccc1)NC(=O)[C@H](CC(N)=O)NC(=O)[C@@H]1CCCN1C(=O)[C@H](CO)NC(=O)[C@H](CO)NC(=O)[C@H](Cc1c[nH]cn1)NC(=O)[C@H](CCCNC(=N)N)NC(=O)[C@H](CC(C)C)NC(=O)[C@H](Cc1ccccc1)NC(=O)[C@H](Cc1c[nH]cn1)NC(=O)[C@H](C)NC(=O)[C@H](CC(C)C)NC(=O)[C@H](CCCNC(=N)N)NC(=O)[C@H](CCC(N)=O)NC(=O)[C@@H](NC(=O)[C@H](C)NC(=O)[C@@H]1CSSC[C@H](NC(=O)[C@@H](N)CCCCNC(=O)COCCOCCNC(=O)CC[C@H](NC(=O)CCCCCCCCCCCCCCCCCCC(=O)O)C(=O)O)C(=O)N[C@@H](CC(N)=O)C(=O)N[C@@H]([C@@H](C)O)C(=O)N[C@@H](C)C(=O)N[C@@H]([C@@H](C)O)C(=O)N1)[C@@H](C)O)C(=O)N1CCC[C@H]1C(=O)N[C@@H](CO)C(=O)N[C@@H](CO)C(=O)N[C@H](C(=O)N[C@@H](CC(N)=O)C(=O)N[C@H](C(=O)NCC(=O)N[C@@H](CCCNC(=N)N)C(=O)N[C@@H](CC(N)=O)C(=O)N[C@H](C(=O)N[C@@H](Cc1ccc(O)cc1)C(N)=O)[C@@H](C)O)C(C)C)[C@@H](C)O
notes: also called 14H, 17R, 21P, 27P, 34R
B4: N^ε1-[2-[2-[2-[[(4S)-4-carboxy-4-(19-carboxynonadecanoylamino)butanoyl]amino]ethoxy]ethoxy]acetyl]-[His14,Arg17,Pro21,Pro27,His34]-h-amylin (peptide)
peptide: K([AEEA-γGlu-C20 diacid])CNTATCATQRLAHFLRHSSPNFGAIPSSTNVGHNTY-NH2
modifications: disulfide 2-7; N-terminus assumed
SMILES: CC[C@H](C)[C@H](NC(=O)[C@H](C)NC(=O)CNC(=O)[C@H](Cc1ccccc1)NC(=O)[C@H](CC(N)=O)NC(=O)[C@@H]1CCCN1C(=O)[C@H](CO)NC(=O)[C@H](CO)NC(=O)[C@H](Cc1c[nH]cn1)NC(=O)[C@H](CCCNC(=N)N)NC(=O)[C@H](CC(C)C)NC(=O)[C@H](Cc1ccccc1)NC(=O)[C@H](Cc1c[nH]cn1)NC(=O)[C@H](C)NC(=O)[C@H](CC(C)C)NC(=O)[C@H](CCCNC(=N)N)NC(=O)[C@H](CCC(N)=O)NC(=O)[C@@H](NC(=O)[C@H](C)NC(=O)[C@@H]1CSSC[C@H](NC(=O)[C@@H](N)CCCCNC(=O)COCCOCCNC(=O)CC[C@H](NC(=O)CCCCCCCCCCCCCCCCCCC(=O)O)C(=O)O)C(=O)N[C@@H](CC(N)=O)C(=O)N[C@@H]([C@@H](C)O)C(=O)N[C@@H](C)C(=O)N[C@@H]([C@@H](C)O)C(=O)N1)[C@@H](C)O)C(=O)N1CCC[C@H]1C(=O)N[C@@H](CO)C(=O)N[C@@H](CO)C(=O)N[C@H](C(=O)N[C@@H](CC(N)=O)C(=O)N[C@H](C(=O)NCC(=O)N[C@@H](Cc1c[nH]cn1)C(=O)N[C@@H](CC(N)=O)C(=O)N[C@H](C(=O)N[C@@H](Cc1ccc(O)cc1)C(N)=O)[C@@H](C)O)C(C)C)[C@@H](C)O
notes: also called 14H, 17R, 21P, 27P, 34H
B5: N^ε1-[2-[2-[2-[[(4S)-4-carboxy-4-(19-carboxynonadecanoylamino)butanoyl]amino]ethoxy]ethoxy]acetyl]-[His14,Arg17,Pro21,Pro27,Pro31]-h-amylin (peptide)
peptide: K([AEEA-γGlu-C20 diacid])CNTATCATQRLAHFLRHSSPNFGAIPSSTPVGSNTY-NH2
modifications: disulfide 2-7; N-terminus assumed
SMILES: CC[C@H](C)[C@H](NC(=O)[C@H](C)NC(=O)CNC(=O)[C@H](Cc1ccccc1)NC(=O)[C@H](CC(N)=O)NC(=O)[C@@H]1CCCN1C(=O)[C@H](CO)NC(=O)[C@H](CO)NC(=O)[C@H](Cc1c[nH]cn1)NC(=O)[C@H](CCCNC(=N)N)NC(=O)[C@H](CC(C)C)NC(=O)[C@H](Cc1ccccc1)NC(=O)[C@H](Cc1c[nH]cn1)NC(=O)[C@H](C)NC(=O)[C@H](CC(C)C)NC(=O)[C@H](CCCNC(=N)N)NC(=O)[C@H](CCC(N)=O)NC(=O)[C@@H](NC(=O)[C@H](C)NC(=O)[C@@H]1CSSC[C@H](NC(=O)[C@@H](N)CCCCNC(=O)COCCOCCNC(=O)CC[C@H](NC(=O)CCCCCCCCCCCCCCCCCCC(=O)O)C(=O)O)C(=O)N[C@@H](CC(N)=O)C(=O)N[C@@H]([C@@H](C)O)C(=O)N[C@@H](C)C(=O)N[C@@H]([C@@H](C)O)C(=O)N1)[C@@H](C)O)C(=O)N1CCC[C@H]1C(=O)N[C@@H](CO)C(=O)N[C@@H](CO)C(=O)N[C@H](C(=O)N1CCC[C@H]1C(=O)N[C@H](C(=O)NCC(=O)N[C@@H](CO)C(=O)N[C@@H](CC(N)=O)C(=O)N[C@H](C(=O)N[C@@H](Cc1ccc(O)cc1)C(N)=O)[C@@H](C)O)C(C)C)[C@@H](C)O
notes: also called 14H, 17R, 21P, 27P, 31P

We go through five molecules from patent publication US20140087995A1 (published 2014).

Numbered stars: 1 amine (or outer) side, 2 acyl side, 3 side chain; on linkers, the order of the positions; unused ones are H or OH. Bridge positions count the residues as written; N and C are the ends. Side chains are listed from the residue outwards. Ends that are not written are not given here. * marks the point of attachment. C20 diacid = O=C(O)CCCCCCCCCCCCCCCCCCC(=O)*; γGlu = O=C(O)[C@H](CCC(=O)[*:2])N[*:1]; AEEA = NCCOCCOCC(=O)O

By IC50 is commonly meant the concentration at which inhibition is half-maximal. A low value points to higher potency.

The test addresses T1, human amylin receptor. Description: SPA competition binding, displacement of 125I-rat amylin from membranes with human amylin 3(a) receptor (Assay V). Summed up: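 One-site competition analysis of SPA counts yielded IC₅₀ as a measure of affinity. Membranes were at 35 ng/μL final; incubation was 120 min at 25° C, pH 7.4.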
A general note: Displacement assays read how much labelled ligand stays bound in the presence of the test substance.
As for B1, the IC50 amounted to 0.048 nM. That is a picomolar value. To B2 belongs 0.088 nM; to B3, 0.743 nM.

In the case of B4, the IC50 came to 0.29 nM.

Regarding B5, the IC50 came out at 0.122 nM. Compared with the last molecule, the IC50 is about 2.4-fold lower.
